FireProtDB (doi:10.1110/ps.0205902)

Conditions: Aspergillus oryzae (strain ATCC 42149 / RIB 40), pH 3, 25 °C, Urea, CD, Glycine-HCl 3 mM, reversible: yes, whole UniProt chain shown

B1: Guanyl-specific ribonuclease T1 wild type, P00651 (protein)
chain: MMYSKLLTLTTLLLPTALALPSLVERACDYTCGSNCYSSSDVSTAQAAGYQLHEDGETVGSNSYPHKYNNYEGFDFSVSSPYYEWPILSSGDVYSGGSPGADRVVFNENNQLAGVITHTGASGNNFVECT
In the case of B1, the denaturant m value (Na2SO4 0.01 M) is reported as 1.67 kcal/mol/M, the “denaturant midpoint (higher = more stable)” value (from here on “denaturant midpoint”) (Na2SO4 0.01 M) is reported as 2.55 M and the unfolding free energy (Na2SO4 0.01 M) is reported as 4.2 kcal/mol. The denaturant m value (Na2SO4 0.20 M) was 1.52 kcal/mol/M, the “denaturant midpoint” value (Na2SO4 0.20 M) was 4.21 M and the unfolding free energy (Na2SO4 0.20 M) was 6.38 kcal/mol. The denaturant m value (Na2SO4 0.50 M) was 1.5 kcal/mol/M, the “denaturant midpoint” value (Na2SO4 0.50 M) was 5.28 M and the unfolding free energy (Na2SO4 0.50 M) was 7.91 kcal/mol. For the same protein, the denaturant m value (Na2SO4 0.80 M) was 1.47 kcal/mol/M, the “denaturant midpoint” value (Na2SO4 0.80 M) was 5.81 M and the unfolding free energy (Na2SO4 0.80 M) was 8.56 kcal/mol. The denaturant m value (NaCl 0.01 M) was 2.29 kcal/mol/M, the “denaturant midpoint” value (NaCl 0.01 M) was 1.43 M and the unfolding free energy (NaCl 0.01 M) was 3.26 kcal/mol. For the same protein, the denaturant m value (NaCl 0.25 M) was 1.85 kcal/mol/M, the “denaturant midpoint” value (NaCl 0.25 M) was 2 M and the unfolding free energy (NaCl 0.25 M) was 3.69 kcal/mol. For the same protein, the denaturant m value (NaCl 0.50 M) was 1.8 kcal/mol/M, the “denaturant midpoint” value (NaCl 0.50 M) was 2.49 M and the unfolding free energy (NaCl 0.50 M) was 4.48 kcal/mol. For the same protein, the denaturant m value (NaCl 0.75 M) was 1.75 kcal/mol/M, the “denaturant midpoint” value (NaCl 0.75 M) was 2.91 M and the unfolding free energy (NaCl 0.75 M) was 5.07 kcal/mol. The denaturant m value (NaCl 1.00 M) was 1.64 kcal/mol/M, the “denaturant midpoint” value (NaCl 1.00 M) was 3.21 M and the unfolding free energy (NaCl 1.00 M) was 5.28 kcal/mol. The denaturant m value (NaSCN 0.01 M) was 2.21 kcal/mol/M, the “denaturant midpoint” value (NaSCN 0.01 M) was 1.44 M and the unfolding free energy (NaSCN 0.01 M) was 3.05 kcal/mol. The denaturant m value (NaSCN 0.05 M) was 1.87 kcal/mol/M, the “denaturant midpoint” value (NaSCN 0.05 M) was 1.55 M and the unfolding free energy (NaSCN 0.05 M) was 2.91 kcal/mol. For the same protein, the denaturant m value (NaSCN 0.25 M) was 1.23 kcal/mol/M, the “denaturant midpoint” value (NaSCN 0.25 M) was 1.5 M and the unfolding free energy (NaSCN 0.25 M) was 1.85 kcal/mol. The denaturant m value (NaSCN 0.50 M) was 1.03 kcal/mol/M, the “denaturant midpoint” value (NaSCN 0.50 M) was 1.38 M and the unfolding free energy (NaSCN 0.50 M) was 1.43 kcal/mol. The denaturant m value (NaSCN 0.75 M) was 1.1 kcal/mol/M, the “denaturant midpoint” value (NaSCN 0.75 M) was 1.04 M and the unfolding free energy (NaSCN 0.75 M) was 1.14 kcal/mol. For the same protein, the denaturant m value was 2.24 kcal/mol/M, the “denaturant midpoint” value was 1.48 M and the unfolding free energy was 3.28 kcal/mol.
